Measurements reported in the supplement of paper PMC5998384.

Legend:
[1] = test system: HeLa Kyoto; assay: solubility in G1/S (NP-40 vs SDS abundance) (log2 ratio); higher = more soluble; conditions: cell cycle stage: G1/S
[2] = test system: HeLa Kyoto; assay: melting temperature (median over replicates), in situ; higher = more thermally stable
[3] = test system: HeLa Kyoto; assay: solubility change mitosis vs G1/S (difference of NP-40 vs SDS log2 ratios) (log2 ratio difference); higher = more soluble in mitosis
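For melting temperature (median over replicates), in situ in this document: HeLa Kyoto cells synchronized by double thymidine or nocodazole block, proteins quantified by TMT10plex mass spectrometry, three independent biological replicates.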
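For solubility change mitosis vs G1/S (difference of NP-40 vs SDS log2 ratios) in this document: synchronized HeLa Kyoto cells (double thymidine block for G1/S, nocodazole release for mitosis), protein amounts in NP-40 versus SDS lysates quantified by mass spectrometry, three biological replicates.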
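For solubility in G1/S (NP-40 vs SDS abundance) in this document: HeLa Kyoto cells arrested at G1/S by double thymidine block, proteins quantified by TMT10plex mass spectrometry in mild NP-40 versus SDS extracts, three biological replicates.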

Substance | solubility in G1/S (log2) [1] | melting temperature ([2]; cell cycle stage: G1/S) [°C] | melting temperature ([2]; cell cycle stage: mitosis) [°C] | solubility change mitosis (log2) [3]
MESGDEAAIERHRVHLRSATLRDAVPATLHLLPCEVAVDGPAPVGRFFTPAIRQGPEGLEVSFRGRCLRGEEVAVPPGLVGYVMVTEEKKVSMGKPDPLRDSGTDDQEEEPLERDFDRFIGATANFSRFTLWGLETIPGPDAKVRGALTWPSLAAAIHAQVPED [RNASEH2C] | 0.236 | 50.7 | 50.3 | -0.016
RERE | -0.116 | – | 50.7 | 0.148
MSGIKRTIKETDPDYEDVSVALPNKRHKAIENSARDAAVQKIETIIKEQFALEMKNKEHEIEVIDQRLIEARRMMDKLRACIVANYYASAGLLKVSEGSKTCDTMVFNHPAIKKFLESPSRSSSPANQRAETPSANHSESDSLSQHNDFLSDKDNNSNMDIEERLSNNMEQRPSRNTGRDTSRITGSHKTEQRNADLTDETSRLFVKKTIVVGNVSKYIPPDKREENDQSTHKWMVYVRGSRREPSINHFVKKVWFFLHPSYKPNDLVEVREPPFHLTRRGWGEFPVRVQVHFKDSQNKRIDIIHNLKLDRTYTGLQTLGAETVVDVELHRHSLGEDCIYPQSSESDISDAPPSLPLTIPAPVKASSPIKQSHEPVPDTSVEKGFPASTEAERHTPFYALPSSLERTPTKMTTSQKVTFCSHGNSAFQPIASSCKIVPQSQVPNPESPGKSFQPITMSCKIVSGSPISTPSPSPLPRTPTSTPVHVKQGTAGSVINNPYVIMDKQPGQVIGATTPSTGSPTNKISTASQVSQGTGSPVPKIHGSSFVTSTVKQEDSLFASMPPLCPIGSHPKVQSPKPITGGLGAFTKVIIKQEPGEAPHVPATGAASQSPLPQYVTVKGGHMIAVSPQKQVITPGEGIAQSAKVQPSKVVGVPVGSALPSTVKQAVAISGGQILVAKASSSVSKAVGPKQVVTQGVAKAIVSGGGGTIVAQPVQTLTKAQVTAAGPQKSGSQGSVMATLQLPATNLANLANLPPGTKLYLTTNSKNPSGKGKLLLIPQGAILRATNNANLQSGSAASGGSGAGGGGGGGGGGGSGSGGGGSTGGGGGTAGGGTQSTAGPGGISQHLTYTSYILKQTPQGTFLVGQPSPQTSGKQLTTGSVVQGTLGVSTSSAQGQQTLKVISGQKTTLFTQAAHGGQASLMKISDSTLKTVPATSQLSKPGTTMLRVAGGVITTATSPAVALSANGPAQQSEGMAPVSSSTVSSVTKTSGQQQVCVSQATVGTCKAATPTVVSATSLVPTPNPISGKATVSGLLKIHSSQSSPQQAVLTIPSQLKPLSVNTSGGVQTILMPVNKVVQSFSTSKPPAILPVAAPTPVVPSSAPAAVAKVKTEPETPGPSCLSQEGQTAVKTEESSELGNYVIKIDHLETIQQLLTAVVKKIPLITAKSEDASCFSAKSVEQYYGWNIGKRRAAEWQRAMTMRKVLQEILEKNPRFHHLTPLKTKHIAHWCRCHGYTPPDPESLRNDGDSIEDVLTQIDSEPECPSSFSSADNLCRKLEDLQQFQKREPENEEEVDILSLSEPVKINIKKEQEEKQEEVKFYLPPTPGSEFIGDVTQKIGITLQPVALHRNVYASVVEDMILKATEQLVNDILRQALAVGYQTASHNRIPKEITVSNIHQAICNIPFLDFLTNKHMGILNEDQ [YEATS2] | -0.495 | 51.4 | 49.7 | 0.161
MAAAEEGCSVGAEADRELEELLESALDDFDKAKPSPAPPSTTTAPDASGPQKRSPGDTAKDALFASQEKFFQELFDSELASQATAEFEKAMKELAEEEPHLVEQFQKLSEAAGRVGSDMTSQQEFTSCLKETLSGLAKNATDLQNSSMSEEELTKAMEGLGMDEGDGEGNILPIMQSIMQNLLSKDVLYPSLKEITEKYPEWLQSHRESLPPEQFEKYQEQHSVMCKICEQFEAETPTDSETTQKARFEMVLDLMQQLQDLGHPPKELAGEMPPGLNFDLDALNLSGPPGASGEQCLIM [G3V3G9] | -0.172 | 51.1 | 51.3 | -0.158
MSGSLGRAAAALLRWGRGAGGGGLWGPGVRAAGSGAGGGGSAEQLDALVKKDKVVVFLKGTPEQPQCGFSNAVVQILRLHGVRDYAAYNVLDDPELRQGIKDYSNWPTIPQVYLNGEFVGGCDILLQMHQNGDLVEELKKLGIHSALLDEKKDQDSK [GLRX5] | -0.00395 | 53.9 | 53 | -0.0285
MRRFKRKHLTAIDCQHLARSHLAVTQPFGQRWTNRDPNHGLYPKPRTKRGSRGQGSQRCIPEFFLAGKQPCTNDMAKSNSVGQDSCQDSEGDMIFPAESSCALPQEGSAGPGSPGSAPPSRKRSWSSEEESNQATGTSRWDGVSKKAPRHHLSVPCTRPREARQEAEDSTSRLSAESGETDQDAGDVGPDPIPDSYYGLLGTLPCQEALSHICSLPSEVLRHVFAFLPVEDLYWNLSLVCHLWREIISDPLFIPWKKLYHRYLMNEEQAVSKVDGILSNCGIEKESDLCVLNLIRYTATTKCSPSVDPERVLWSLRDHPLLPEAEACVRQHLPDLYAAAGGVNIWALVAAVVLLSSSVNDIQRLLFCLRRPSSTVTMPDVTETLYCIAVLLYAMREKGINISNRIHYNIFYCLYLQENSCTQATKVKEEPSVWPGKKTIQLTHEQQLILNHKMEPLQVVKIMAFAGTGKTSTLVKYAEKWSQSRFLYVTFNKSIAKQAERVFPSNVICKTFHSMAYGHIGRKYQSKKKLNLFKLTPFMVNSVLAEGKGGFIRAKLVCKTLENFFASADEELTIDHVPIWCKNSQGQRVMVEQSEKLNGVLEASRLWDNMRKLGECTEEAHQMTHDGYLKLWQLSKPSLASFDAIFVDEAQDCTPAIMNIVLSQPCGKIFVGDPHQQIYTFRGAVNALFTVPHTHVFYLTQSFRFGVEIAYVGATILDVCKRVRKKTLVGGNHQSGIRGDAKGQVALLSRTNANVFDEAVRVTEGEFPSRIHLIGGIKSFGLDRIIDIWILLQPEEERRKQNLVIKDKFIRRWVHKEGFSGFKRYVTAAEDKELEAKIAVVEKYNIRIPELVQRIEKCHIEDLDFAEYILGTVHKAKGLEFDTVHVLDDFVKVPCARHNLPQLPHFRVESFSEDEWNLLYVAVTRAKKRLIMTKSLENILTLAGEYFLQAELTSNVLKTGVVRCCVGQCNNAIPVDTVLTMKKLPITYSNRKENKGGYLCHSCAEQRIGPLAFLTASPEQVRAMERTVENIVLPRHEALLFLVF [FBXO18] | -0.21 | 51.7 | 52.4 | -0.0335
